According to patent US7708999B2, “Remedies for arthritis” (Kyowa Hakko Kirin Co., Ltd., priority 2001, dated 2010):

T1: FGF-8 (Homo sapiens, UniProt P55075)
T1 construct: purchased R & D
T1 sequence (P55075 23-215 isoform P55075-3 limits assumed): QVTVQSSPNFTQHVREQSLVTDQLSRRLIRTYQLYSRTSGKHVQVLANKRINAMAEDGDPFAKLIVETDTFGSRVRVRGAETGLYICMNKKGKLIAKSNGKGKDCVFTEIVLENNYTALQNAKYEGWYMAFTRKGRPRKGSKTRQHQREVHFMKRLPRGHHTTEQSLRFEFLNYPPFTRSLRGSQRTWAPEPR

T2: compound 1 as a partial peptide of FGF-8 (Homo sapiens, UniProt P55075)
T2 construct: 17; made in house; host or cells: chemical synthesis
T2 sequence (P55075 with tags, fused parts or gaps isoform P55075-3 limits assumed): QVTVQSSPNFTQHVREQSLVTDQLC


Key:
FGF-8 [1] = target: T1, FGF-8; experiment: FGF-8 neutralizing activity: FGF-8-dependent growth of mouse breast cancer cell line SC-3; type: cell-based; settings: SC-3 cells, FGF-8 50 ng/mL, WST-1
Experimental: The FGF-8 neutralizing activity of the purified anti-FGF-8 neutralizing chimeric antibody was evaluated by measured the following FGF-8-dependent growth inhibitory effect of mouse breast cancer cell line SC-3 (Tanaka A. et al., Proc. Natl. Acad. Sci. USA, 89, 8928-8932, 1992) described below. That is, SC-3 cells were suspended at a concentration of 3.0×10^4 cells/mL in DMEM:Ham's F12 (1:1) medium [a mixed medium of DMEM medium and Ham's F12 medium (manufactured by Invitrogen) at a ratio of 1:1] containing activated charcoal-treated FBS at a concentration of 2%. The suspension was inoculated on a 96-well plate in an amount of 150 μL (4.5×10^3 cells)/well. After the culturing in a 5% CO2 incubator at 37° C. for 18 hours, the medium was replaced with 100 μL/well of a test medium. The test medium was produced by dissolving 50 ng/mL of FGF-8 (manufactured by R & D) and the anti-FGF-8 neutralizing chimeric antibody at each dilute concentration in DMEM:Ham's F12 (1:1) medium containing 0.1% BSA. The chimeric antibody KM2760 to human chemokine CCR4 described in WO 01/64754 was used as an antibody of a negative control. After the culturing in a 5% CO2 incubator at 37° C. for 48 hours, the medium was replaced with a freshly prepared test medium, and the culturing was further performed for 48 hours. WST-1 Reagent (manufactured by Roche) was added in an amount of 10 μL/well, and the mixture was culturing in a 5% CO2 incubator at 37° C. for 1 hour while being gently stirred. Then, absorbance (OD450,650) was measured. In FIG. 21, the abscissa represents a concentration of an antibody added, and the ordinate represents relative growth (%) to growth when adding 50 ng/mL of FGF-8 alone. The relative growth (%) to growth when adding 50 ng/mL of FGF-8 alone was calculated by the following formula. Relative growth (%) to growth when adding FGF-8={(Absorbance when adding FGF-8 and antibody−Absorbance when not adding FGF-8 and antibody)/(Absorbance when adding FGF-8 alone−Absorbance when not adding FGF-8 and antibody)}×100

[2] = target: T2, compound 1 as a partial peptide of FGF-8; experiment: FGF-8 binding activity by BIAcore 2000, immobilized biotin-labeled compound 1; settings: antibody 16.7 μg/mL; FGF-8 peptide immobilized 35 RU
Experimental: In order to examine the FGF-8 binding activity of the anti-FGF-8 neutralizing CDR-grafted antibodies obtained in 5. of Reference Example 3, the FGF-8 binding activity of the various anti-FGF-8 neutralizing CDR-grafted antibodies was measured and compared through BIAcore 2000 using compound 1 as a partial peptide of FGF-8 with the C terminal labeled with biotin in the following manner. The anti-FGF-8 neutralizing chimeric antibody KM3034 derived from CHO/DG44 cells obtained in 3. (1) of Reference Example 1 was used as a positive control.
HBS-EP was used as a sample diluent and a buffer during measurement. First, Sensor Chip SA (manufactured by BIACORE) was installed, and 5 μL of compound 1 labeled with biotin which had been adjusted to 0.05 μg/mL was added at a flow rate of 5 μL/min. Then, 5 μL of a 10 mmol/L glycine-hydrochloride solution (pH 1.5) was added twice continuously to wash the tip surface. The immobilization amount of the FGF-8 peptide was 35 RU.
60 μL of each of the antibody solutions was added to an FGF-8 peptide immobilized flow cell at a flow rate of 20 μL/min, and the dissociation reaction was then monitored for 3 minutes. After the dissociation reaction, 20 μL of 10 mmol/L glycine-hydrochloride solution (pH 1.5) was added twice continuously to regenerate the chip surface. This cycle was performed on the antibody solution at various concentrations (from 50 to 1.85 μg/mL) to obtain sensor grams at various concentrations. The sensor grams of the respective antibodies were converted to sensor grams of specific reactions by deduceing a sensor gram obtained using the chimeric antibody KM871 to GD3 as a negative control.

FGF-8 [3] = target: T1, FGF-8; experiment: FGF-8 binding activity by BIAcore 2000, immobilized FGF-8; settings: antibody 50 μg/mL; FGF-8 immobilized 4498 RU
Experimental: In order to examine the FGF-8 binding activity of the various anti-FGF-8 neutralizing CDR-grafted antibodies obtained in 4. of Reference Example 2 in more detail, the FGF-8 binding activity of the various anti-FGF-8 neutralizing CDR-grafted antibodies was measured and compared in the following manner using BIAcore2000 (manufactured by BIACORE). The YB2/0 cell-derived anti-FGF-8 neutralizing chimeric antibody KM3334 obtained in 3.(2) of Reference Example 1 was used as a positive control.
HBS-EP (manufactured by BIACORE) was used hereinafter as a sample diluent and a buffer during measurement. First, Sensor Chip CM5 (manufactured by BIACORE) was installed, and FGF-8 (manufactured by R & D) dissolved in 31.25 μg/mL of 10 mmol/L acetate buffer solution (pH 4.0) was immobilized on the surface of the sensor chip by the amine coupling method. The immobilization amount measured by using a resonance signal (RU) as an index was 4498 RU.
60 μL of each of the antibody solutions was added to an FGF-8 immobilized flow cell at a flow rate of 20 μL/min, and the dissociation reaction was then monitored for 3 minutes. After the dissociation reaction, 20 μL of a 10 mmol/L glycine-hydrochloride solution (pH 1.5) was added to the flow cell twice continuously to regenerate the surface of the chip. This cycle was performed with the antibody solution at various concentrations (from 50 to 0.068 μg/mL) to obtain sensor grams at various concentrations. The sensor grams of the respective antibodies were converted to sensor grams of specific reactions by deducing a sensor gram obtained using chimeric antibody KM871 (Shitara K. et al., Cancer Immunol. Immunother., 36, 373-380, 1993) to GD3 as a negative control. […] Accordingly, the binding activity of the various antibodies was compared in terms of the binding [resonance signal (RU)] in the binding reaction. […] The effect of restoring the binding activity was not observed in the 6 amino acid residues of FR of VH.

Row | binding reaction [resonance signal (RU)] [2] | binding reaction [resonance signal (RU)] (FGF-8 [3]) | Molecule | FGF-8 neutralizing activity (SC-3 cell growth inhibitory activity) (FGF-8 [1])
1 |  | the highest binding reaction | KM3334: anti-FGF-8 neutralizing human chimeric antibody, VH SEQ ID NO. 5, VL SEQ ID NO. 6, human γ1/κ, YB2/0 cell-derived (antibody, listed as Mus musculus, V domains shown) VH: QVQLQQSGAEVARPGASVKLSCKASGYTFTDYYLNWVKQRSGQGLEWIGEIDPGSDSIYYNENLEGRATLTADKSSSTAYMQLNSLTSEDSAVYFCARYGYSRYDVRFVYWGQGTLVTVST VL: DVLMTQTPLSLPVSLGDQASISCRSSQSLVHSNGRTYLEWYLQKPGQSPKVLIYKVSNRISGVPDRFSGSGSGTDFTLKISRVEAEDLGVYFCFQGSHVPYTFGGGTKLEIK | 
2 |  | the same high binding reaction as KM3334 | HV0LV6: YB2/0 cell-derived anti-FGF-8 neutralizing CDR-grafted antibody, VH HV.0 (SEQ ID NO. 18), VL LV.6 (SEQ ID NO. 21) (antibody, V domains shown, HV.0, a designed amino acid sequence of VH of an anti-FGF-8 CDR-grafted neutralizing antibody; LV.6, a designed amino acid sequence of VL of an anti-FGF-8 CDR-grafted neutralizing antibody) VH: QVQLVQSGAEVKKPGASVKVSCKASGYTFTDYYLNWVRQAPGQGLEWMGEIDPGSDSIYYNENLEGRVTITADTSTSTAYMELSSLRSEDTAVYYCARYGYSRYDVRFVYWGQGTLVTVSS VL: DVVMTQSPLSLPVSLGEPASISCRSSQSLVHSNGRTYLEWYLQKPGQSPKVLIYKVSNRISGVPDRFSGSGSGTDFTLKISRVEAEDVGVYFCFQGSHVPYTFGQGTKVEIK | 
3 | the higher binding reaction |  | HV0LV4-1/CHO: CHO/DG44 cell-derived anti-FGF-8 neutralizing CDR-grafted antibody, VH HV.0, VL LV.4-1 (SEQ ID NO. 42) (antibody, V domains shown) VH: QVQLVQSGAEVKKPGASVKVSCKASGYTFTDYYLNWVRQAPGQGLEWMGEIDPGSDSIYYNENLEGRVTITADTSTSTAYMELSSLRSEDTAVYYCARYGYSRYDVRFVYWGQGTLVTVSS VL: DVVMTQSPLSLPVTPGEPASISCRSSQSLVHSNGRTYLEWYLQKPGQSPKVLIYKVSNRISGVPDRFSGSGSGTDFTLKISRVEAEDVGVYFCFQGSHVPYTFGQGTKVEIK | slightly lower FGF-8 neutralizing activity than the HV0LV3-1/CHO

Further lines, the molecule ahead of its results:

Row | Molecule | binding reaction [resonance signal (RU)] [2] | binding reaction [resonance signal (RU)] (FGF-8 [3]) | FGF-8 neutralizing activity (SC-3 cell growth inhibitory activity) (FGF-8 [1])
4 | HV0LV2-1/CHO: CHO/DG44 cell-derived anti-FGF-8 neutralizing CDR-grafted antibody, VH HV.0, VL LV.2-1 (SEQ ID NO. 46) (antibody, V domains shown) VH: QVQLVQSGAEVKKPGASVKVSCKASGYTFTDYYLNWVRQAPGQGLEWMGEIDPGSDSIYYNENLEGRVTITADTSTSTAYMELSSLRSEDTAVYYCARYGYSRYDVRFVYWGQGTLVTVSS VL: DIVMTQSPLSLPVTPGEPASISCRSSQSLVHSNGRTYLEWYLQKPGQSPQVLIYKVSNRISGVPDRFSGSGSGTDFTLKISRVEAEDVGVYFCFQGSHVPYTFGQGTKVEIK | the higher binding reaction |  | the lowest neutralizing activity
5 | HV0LV3-3/CHO: CHO/DG44 cell-derived anti-FGF-8 neutralizing CDR-grafted antibody, VH HV.0, VL LV.3-3 (SEQ ID NO. 51) (antibody, V domains shown) VH: QVQLVQSGAEVKKPGASVKVSCKASGYTFTDYYLNWVRQAPGQGLEWMGEIDPGSDSIYYNENLEGRVTITADTSTSTAYMELSSLRSEDTAVYYCARYGYSRYDVRFVYWGQGTLVTVSS VL: DIVMTQSPLSLPVSLGEPASISCRSSQSLVHSNGRTYLEWYLQKPGQSPQVLIYKVSNRISGVPDRFSGSGSGTDFTLKISRVEAEDVGVYYCFQGSHVPYTFGQGTKVEIK | lower than that of the HV0LV3-1 |  | approximately half that of the chimeric antibody KM3034
6 | HV0LV4-3/CHO: CHO/DG44 cell-derived anti-FGF-8 neutralizing CDR-grafted antibody, VH HV.0, VL LV.4-3 (SEQ ID NO. 50) (antibody, V domains shown) VH: QVQLVQSGAEVKKPGASVKVSCKASGYTFTDYYLNWVRQAPGQGLEWMGEIDPGSDSIYYNENLEGRVTITADTSTSTAYMELSSLRSEDTAVYYCARYGYSRYDVRFVYWGQGTLVTVSS VL: DIVMTQSPLSLPVSLGEPASISCRSSQSLVHSNGRTYLEWYLQKPGQSPQVLIYKVSNRISGVPDRFSGSGSGTDFTLKISRVEAEDVGVYFCFQGSHVPYTFGQGTKVEIK | the higher binding reaction than that of the HV0LV3-1/CHO and similar to that of the HV0LV6/CHO |  | approximately half that of the chimeric antibody KM3034
